Measured values published in publication doi:10.1101/2021.09.24.461537 (bioRxiv, 2021).

How the values were obtained:
Assay in all cases: ITC
[1] = target: Drosophila Su(H) (98-523) WT (Drosophila) (UniProt P28159)
mouse Rbpj (53-474) WT = mouse Rbpj (53-474) WT (mouse, UniProt P31266 53-474)
mouse Rbpj (53-474) E89G = mouse Rbpj (53-474) E89G (mouse, UniProt P31266 53-474, E89G)
[2] = target: mouse Rbpj (53-474) K195E (mouse, UniProt P31266 53-474, K195E)
mouse Rbpj (53-474) K195E, sequence (P31266 53-474 K195E): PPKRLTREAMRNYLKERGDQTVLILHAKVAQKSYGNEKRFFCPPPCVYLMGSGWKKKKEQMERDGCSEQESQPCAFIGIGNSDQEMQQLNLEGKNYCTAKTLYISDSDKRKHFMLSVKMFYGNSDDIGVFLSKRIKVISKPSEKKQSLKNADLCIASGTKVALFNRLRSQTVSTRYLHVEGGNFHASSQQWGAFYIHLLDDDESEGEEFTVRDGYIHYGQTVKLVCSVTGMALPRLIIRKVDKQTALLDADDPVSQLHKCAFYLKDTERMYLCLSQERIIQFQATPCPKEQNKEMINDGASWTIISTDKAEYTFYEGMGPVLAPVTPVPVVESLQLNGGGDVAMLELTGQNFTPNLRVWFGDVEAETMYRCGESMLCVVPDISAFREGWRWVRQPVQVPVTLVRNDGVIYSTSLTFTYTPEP

mouse Rbpj (53-474) E89G, sequence (P31266 53-474 E89G): as the sequence (P31266 53-474 K195E) above, with E37G, E143K counted along it
mouse Rbpj (53-474) WT, sequence (P31266 53-474): as the sequence (P31266 53-474 K195E) above, with E143K counted along it

Kd [1] [nM] | Kd (mouse Rbpj (53-474) WT) [nM] | Kd (mouse Rbpj (53-474) E89G) [nM] | Kd [2] [nM] | Molecule
187 |  |  |  | Drosophila Notch RAM domain peptide (residues 1763-1790)
 | ~5 | ~5 | 21 | SHARP residues 2776-2833 (domain or fragment) RASANENSRFHPGSMPVIDDRPADAGSGAGLRVNTSEGVVLLSYSGQKTEGPQRISAK
 | ~20 | ~20 | ~20 | VLLSRKRRRQHGQLWFPEGFKVSEASKK [Notch1 RAM domain peptide (human Notch1 residues 1754-1781)]
